These are literature values, as cited in article PMC9377792.

The target in this series is uPAR (Homo sapiens) (UniProt Q03405).
Sequence of UniProt Q03405 (Q03405 23-305): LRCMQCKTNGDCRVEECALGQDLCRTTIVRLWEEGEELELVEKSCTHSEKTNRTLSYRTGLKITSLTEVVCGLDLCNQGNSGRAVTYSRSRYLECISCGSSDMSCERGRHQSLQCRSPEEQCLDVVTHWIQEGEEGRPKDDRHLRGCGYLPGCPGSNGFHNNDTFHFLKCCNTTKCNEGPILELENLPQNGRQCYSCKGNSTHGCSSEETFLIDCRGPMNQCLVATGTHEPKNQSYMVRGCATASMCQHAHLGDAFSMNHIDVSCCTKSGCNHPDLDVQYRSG

Factor XII (from UniProt P00748): the dissociation constant Kd (in general, the equilibrium constant for the complex coming apart) was 37.1 nM.
